Among the data in patent US20030226164, “Lambda integrase mediated recombination in plants” (Syngenta Participations AG, published 2003) are activity (fold luciferase over substrate alone) and activity values, retold here.

Substitutions are numbered along the chain they refer to.

The target of data set [1] is T1, Lambda Int-h (SynInt-h) E174K (Bacteriophage lambda) (UniProt P03700).
T1 sequence: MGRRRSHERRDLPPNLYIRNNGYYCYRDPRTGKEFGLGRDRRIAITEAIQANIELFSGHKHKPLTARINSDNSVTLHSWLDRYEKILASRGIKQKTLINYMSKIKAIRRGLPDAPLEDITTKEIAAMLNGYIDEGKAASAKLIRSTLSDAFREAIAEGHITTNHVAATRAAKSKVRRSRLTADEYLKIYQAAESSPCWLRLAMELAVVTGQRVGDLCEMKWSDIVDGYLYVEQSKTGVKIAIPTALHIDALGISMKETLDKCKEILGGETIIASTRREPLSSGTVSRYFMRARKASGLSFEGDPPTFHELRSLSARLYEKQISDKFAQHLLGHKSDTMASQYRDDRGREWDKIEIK
The experiment in a line: cell_activity. To be noted: attP x attB without IHF, maize BMS cells.

Data set [2] deals with T2, Lambda Int-h/218 E174K,E218K (Bacteriophage lambda) (UniProt P03700).
T2 sequence: T1 sequence with E218K
The experiment in a line: cell_activity. Particulars: attP x attB without IHF, maize BMS cells.

For a further data set, the target named is T3, Lambda Int-h (SynInt-h) (Bacteriophage lambda, UniProt P03700 SEQ:1-356, E174K).
T3 sequence: T1 sequence
In words: cell_activity; attB x attP without IHF, maize BMS cells. To be noted: chain copies: 4. The procedure:
(§1) Bombarded BMS cells are incubated in the dark at 28° C. for 48 hours. After incubation, the cells are assayed for luciferase expression levels.

The target of a further data set is T4, Lambda Int-h/218 (Bacteriophage lambda, UniProt P03700 SEQ:1-356, E174K,E218K).
T4 sequence: T1 sequence with E218K
The data set is described as above. Particulars: chain copies: 4. On the procedure: as §1

For the molecule “TCTGTTACAGGTCACTAATACCATCTAAGTAGTTGATTCATAGTGACTGCATATGTTGTGTTTTACAGTATTATGTAGTCTGTTTTTTATGCAAAATCTAATTTAATATATTGATATTTATATCATTTTACGTTTCTCGTTCAGCTTTTTTATACTAAGTTGGCATTATAAAAAAGCATTGCTTATCAATTTGTTGCAACGAACAGGTCACTATCAGTCAAAATAAAATCATTATTTGATTTC (double strand) [attP]”, the activity (fold luciferase over substrate alone) in data set [1] is 15; in data set [2], 49.

B1: attB (dsDNA)
DNA 1: TGAAGCCTGCTTTTTTATACTAACTTGAGCG
DNA 2: CGCTCAAGTTAGTATAAAAAAGCAGGCTTCA
Consider B1, for which the activity in the data set with Lambda Int-h (SynInt-h) was 15 fold luciferase over substrate alone; with Lambda Int-h/218, 49 fold luciferase over substrate alone.
